Measurements as given in paper PMC3285579.

Key:
[1] = target: GST-NCK-1 F.L., full length NCK-1 (1 aa-397 aa) (C. elegans); experiment: pull-down; MBP pull-down with competitors (Figure 6B): MBP-WSP-1 on amylose resin; soluble extracts of GST-NCK-1 F.L., GST-UNC-34 F.L. and His-VAB-1 as load; band intensities quantified from at least two independent blots with Image J; wash 20 mM Tris-Cl pH 7.5, 200 mM NaCl, 1 mM EDTA, 1 mM DTT
[2] = target: MBP-WSP-1(334 aa-608 aa) (C. elegans); experiment: as above
MBP-WSP-1(334 aa-608 aa) (C. elegans), sequence (main, as listed by the source): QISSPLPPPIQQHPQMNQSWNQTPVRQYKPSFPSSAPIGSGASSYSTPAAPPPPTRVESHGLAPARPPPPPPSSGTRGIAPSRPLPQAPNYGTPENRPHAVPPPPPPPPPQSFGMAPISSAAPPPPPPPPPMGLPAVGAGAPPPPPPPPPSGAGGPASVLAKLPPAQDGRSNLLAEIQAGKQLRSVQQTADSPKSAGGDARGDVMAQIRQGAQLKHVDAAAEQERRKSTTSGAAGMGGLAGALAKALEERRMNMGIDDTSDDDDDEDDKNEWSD

Substance | relative intensity of NCK-1 pulled down by MBP-WSP-1 with UNC-34 added (without UNC-34 = 1.0) [1] | relative intensity of NCK-1 pulled down by MBP-WSP-1 with UNC-34 and VAB-1 added (NCK-1 alone = 1.0) [2]
GST-UNC-34 F.L., full length UNC-34 (1 aa-454) (natural protein) | 0.3 | –
GST-NCK-1 F.L., full length NCK-1 (1 aa-397 aa) (natural protein) | – | 1.3
